Experimental data from the supplement of paper PMC9170038.

Tested on: MS2 coat protein
Assay: apparent KD of MS2 coat protein; designed switch direction (-1 OFF switch, 1 ON switch): -1; higher = weaker reporter binding
Summary of the method: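 Stalled E. coli RNA polymerase transcribed designed RNA switches on Illumina chips, which were then titrated with SNAP-549-labelled MS2 coat protein, doubling from 0.7 or 1.5 nM to 3 µM. Steps lasted from 0.8–1.5 h at the lowest concentration to 10–20 min at the highest. The apparent KD is each design's median over clusters of curve-fitted normalised fluorescence.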

[1] = input ligand: microRNA oligo, concentration not stated
[2] = Eterna round: R95, input ligand: FMN 200 uM
[3] = Eterna round: R95, input ligand: microRNA oligo, concentration not stated
[4] = Eterna round: R95, input ligand: none

| Sequence | apparent KD of MS2 coat protein (input ligand: FMN 200 uM) | apparent KD of MS2 coat protein [1] | apparent KD of MS2 coat protein (input ligand: none) | apparent KD of MS2 coat protein [2] | apparent KD of MS2 coat protein [3] | apparent KD of MS2 coat protein [4] |
| --- | --- | --- | --- | --- | --- | --- |
| GCUCGUGGGCAAGGAUAUCCUACGCUGUUCUGGUUCGUGUCUGUCACAUGAGGAUCACCCAUGUGGGAGAAGGUGCAUUUGGGU [Design 56] (Eterna round: R96, puzzle: Exclusion NG 2) | 0.0182 µM | 0.0159 µM | 0.0206 µM |  |  |  |
| GAGUUAACAUGAGGAAUAUACAUGAGGAUCACCCAUGUUAACAAAAUUUUUGCUCGUCUUAUAACAACAAUUAACUC [Alarm 3 - Jieux - Sensor, turn-off variant 1] (Eterna round: R97, puzzle: Sensor, turn-off variant 1) | 0.272 µM |  | 0.151 µM |  |  |  |
| AAGUACCGUCACGAUAGUGAUGGUACAACAAGCAAAUGUACAUGAGGAUCACCCAUGUCCUCUUUUGCUCGUCUUAU [Sensor 3 - 94] (puzzle: Sensor v3, turn-off variant 2) |  |  |  | 0.0533 µM | 0.0289 µM | 0.0538 µM |
| AGCUGGUCAGGAUAUUUGGAGGGACUCCAAUGGUCCACGACGGAGAAGGGACAUGAGGAUCACCCAUGUGGUCG [Eternabot (L2) Solution 13] (Eterna round: R97, puzzle: Exclusion 4) | 0.0693 µM |  | 0.115 µM |  |  |  |
| ACUAUUAGAGGAUAUACAGUUUAUUACAUGAGGAUCACCCAUGUUCUUCAAUGUAUAUAAGUAGAAGGCUAAGGAA [EX-5 Malc#3] (puzzle: Exclusion 5) |  |  |  | 0.114 µM | 0.0459 µM | 0.0382 µM |
| AACUCUGAGAAGGAUAUUCAAUGGGAAACGAUAGAAGAAGGUUUCACAUGAGGAUCACCCAUGUCAAAUAGUGA [EX6 #72] (Eterna round: R97, puzzle: Exclusion 6) | 0.178 µM |  | 0.173 µM |  |  |  |
| UUGUUAUAUGUAGGAUAUGCAUAUUAUUAUUAUGCAGAAGGACAUGAGGAUCACCCAUGUAUGUUGUUGUUAUAUAUUAUAUAU [Title] (Eterna round: R96, puzzle: Exclusion NG 1) |  | 0.0179 µM |  |  |  |  |
| AGUACUGAGCAGGAUAUAUACAGGAUGCCCUCUGUAGAAGGGCUAACAUGAGGAUCACCCAUGUCCUAUAUGGC [Eternabot (L2) Solution 56] (Eterna round: R97, puzzle: Exclusion 6) | 0.039 µM |  | 0.0491 µM |  |  |  |
| CAUAAUGCAGGAUAUACCAAAUGGCAGUGAAUGCGUGCGCAACAUGAGGAUCACCCAUGUAGAAGGGCACAAGA [Eternabot (Original) Solution 27] (Eterna round: R97, puzzle: Exclusion 2) | 0.018 µM |  | 0.0135 µM |  |  |  |
| GCAUCCAAAGUGAGGAUAUACCUCUGGAUACAUAGGUAGAAGGCACAUGAGGAUCACCCAUGUUCCUAGGAUGC [Fiskers BMX 4 - 32] (puzzle: Brourd's mod of Exclusion 4) |  |  |  |  | 0.025 µM |  |
| GGAGAGUCAGGAUAUACAUGAGGAUCACCCAUGUUGGAAAGUGGAGGGACGGGAGUCCGUAGAAGGGACGAGAG [Identicality] (puzzle: Exclusion 3) |  |  |  |  | 0.0277 µM |  |
| GGGUGUCCAGUGAGGAUAUCCAGCGCUCAGGCGCAGGAGAAGGCACAUGAGGAUCACCCAUGUAGCUGAAGAAA [Geenra] (puzzle: Brourd's mod of Exclusion 4) |  |  |  | 0.116 µM | 0.0309 µM | 0.0417 µM |
| AUCGUGUGAGGAUAUCGAUUAUGGAAGUCUAGGUCCAUACGCGAGAAGGCACAUGAGGAUCACCCAUGUAAUGG [jl-ex4-4.32 ViennaUCT mod] (Eterna round: R97, puzzle: Exclusion 4) | 0.0298 µM |  | 0.486 µM |  |  |  |
| CUAUUACGAGGAUAUGAUUUAAAUAACAUGAGGAUCACCCAUGUUUUUACGUUAUUUUAUUUAGAAGGCGUAUAGU [JR_E5_Sub029] (puzzle: Exclusion 5) |  |  |  |  | 0.042 µM |  |
| AAAGGUGAGUAGGAUAUCCGCGCACGAAUAAAAGGAGAAGGACUUACAUGAGGAUCACCCAUGUAAGGUGGUAA [Ationbi] (puzzle: Exclusion 6) |  |  |  | 0.0194 µM | 0.0117 µM | 0.0151 µM |
| AAUCUACAUGUAGGAUAUGCGUGGCAAAGCUAUGCAGAAGGACAUGAGGAUCACCCAUGUUUUAGCGUCUGCGUACAGAUGCGA [Mat - Exclusion NG 1 - Mod of JL - D100] (Eterna round: R96, puzzle: Exclusion NG 1) | 0.147 µM | 0.0184 µM | 0.0279 µM |  |  |  |
| UUCCAUUCAGGAUAUCGAUGGAAUCACAUGAGGAUCACCCAUGUGAUACCUAGGUGACCGCGAGAAGGGAAAGGGU [EX5 B.7] (Eterna round: R97, puzzle: Exclusion 5) | 0.0138 µM |  | 0.0129 µM |  |  |  |
| GUGCAACAUGAGGAUCACCCAUGUUAGGAUAUGUCCUUGGAGACGCACUAGCUCUGAGACAGAAGGGACAGAGG [Eternabot (Original) Solution 34] (Eterna round: R97, puzzle: Exclusion 1) | 0.0699 µM |  | 0.0512 µM |  |  |  |
| ACAUGAGGAUCACCCAUGUCCGGCUGGUCUGUCUCGGCUGUCGAGGAUAUAGCUCGGUAUCCGCGCUAGAAGGCGGGAGCCGGU [Aenatbe mod 91] (Eterna round: R96, puzzle: Exclusion NG 3) | 0.0767 µM | 0.0294 µM | 0.0488 µM |  |  |  |
| GGCAUGUAAGGAUAUCUAUCGGUGAGAAAACCAAUUGGGCAAGAGAAGGUACAUGAGGAUCACCCAUGUGGACC [Eternabot (L1) Solution 9] (Eterna round: R97, puzzle: Exclusion 4) | 0.135 µM |  | 0.044 µM |  |  |  |
| AUUUUGUCAGGAUAUUGUUAGUUUAGUUGUUUGUAUUAGUUCGAGAAGGGACAUGAGGAUCACCCAUGUGAAAA [Ex4 #71] (Eterna round: R97, puzzle: Exclusion 4) | 0.0389 µM |  | 0.0372 µM |  |  |  |
| GUAGAGUAAGGAUAUGUUGAAUAGGAUAGAAUGGUUAGAAAACAGAAGGUACAUGAGGAUCACCCAUGUAAUGU [Excluse me!!!! 11 - Jieux - Exclusion 4] (puzzle: Exclusion 4) |  |  |  | 0.02 µM | 0.0191 µM | 0.0176 µM |
| GCGGAUUAUGUAGGAUAUCGGUCAGUUUCUGAUCGAGAAGGACAUGAGGAUCACCCAUGUAAAUUGCCCGCUUUGUGGGUCCGC [JL ENG1 3.62] (Eterna round: R96, puzzle: Exclusion NG 1) | 0.0417 µM | 0.015 µM | 0.0157 µM |  |  |  |
| UUCGUGCUGCUUUGCUGUACGAGUACAUGAGGAUCACCCAUGUAGGAUAUGGUACGCUUUGCGUGCUAGAAGGAUAUGUGUAGC [salish99_ExNG3_r04_505] (Eterna round: R96, puzzle: Exclusion NG 3) | 0.0267 µM | 0.0189 µM | 0.0254 µM |  |  |  |
| AUAGGGUCAGGAUAUUGCGCAGUGGACAUGAGGAUCACCCAUGUGAACUUCGUACCGGGCCAAGAAGGGACAGAAA [Tiersoaso] (puzzle: Exclusion 5) |  |  |  | 0.0217 µM | 0.0113 µM | 0.0134 µM |
